Molecular target: T1, mature myostatin (human, UniProt O14793 267-375)
T1 sequence (looked up): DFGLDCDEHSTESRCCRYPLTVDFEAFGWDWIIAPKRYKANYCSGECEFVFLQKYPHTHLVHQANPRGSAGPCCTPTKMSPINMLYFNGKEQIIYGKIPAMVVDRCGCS
Assay: SPR

Kd: 3.7 µM
B1: N-terminal region of myostatin prodomain (PRO43-115) (domain or fragment, human, UniProt O14793 43-115, looked up)
chain: TWRQNTKSSRIEAIKIQILSKLRLETAPNISKDVIRQLLPKAPPLRELIDQYDVQRDDSSDGSLEDDDYHATT
